Measured values reported in the supplement of paper PMC12764529.
± gives the half width of the 95% confidence interval.

Tests used:
[1] = folding stability dG unfold from chymotrypsin proteolysis; higher = more stable
Summary of the method: (§1)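 Unfolding free energy was derived, per protease or combined, against a sequence-predicted unfolded-state K50 and a shared folded-state K50, starting from K50 inferred by Bayesian fitting of sequencing counts. Digestion with trypsin and chymotrypsin was carried out on designed mini-proteins under 80 residues without cysteine in a PA-tagged cDNA display construct. Only designs with AlphaFold2 dimer inter-PAE above 15 were kept.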

[2] = folding stability dG unfold from trypsin proteolysis; higher = more stable
Summary of the method: as §1

[3] = folding stability dG unfold (combined trypsin and chymotrypsin); higher = more stable
Summary of the method: as §1

Sequence: SAGGSAGGSAGGPKIVRIAGNPETGILIIEFENGEKKVIELKQEEADKLAKENPGVEVLTSAGGSAGGSAGG [r7_175_TrMRF]
- folding stability dG unfold [1]: 0.433 ± 0.056 kcal/mol
- folding stability dG unfold [2]: 1.03 ± 0.059 kcal/mol
- folding stability dG unfold [3]: 0.777 ± 0.11 kcal/mol

Sequence: SAGGSAGGSAGGPKYKIEIEIKKIKVKVEKTVKYDGKTYKEEKEFEVLEIKIKIEPEGESAGGSAGGSAGGS [r10_118_TrROS_Hall]
- folding stability dG unfold [1]: 4.29 ± 0.21 kcal/mol
- folding stability dG unfold [2]: 3.19 ± 0.36 kcal/mol
- folding stability dG unfold [3]: 4.05 ± 0.29 kcal/mol

Sequence: SAGGSAGGSAGGPNGKPLNLKIEIPKIEKIQRVNGRPVIRIPVRMTFPGKEVKMTIWIPISAGGSAGGSAGG [r7_739_TrROS]
- folding stability dG unfold [1]: 2.44 ± 0.048 kcal/mol
- folding stability dG unfold [2]: 2.13 ± 0.086 kcal/mol
- folding stability dG unfold [3]: 2.3 ± 0.095 kcal/mol

Sequence: SAGGSAGGSAGGPNLQIMVMQTDNSLTVMIYLPEGWVIVYKITPMKIELEIMPLKDPDDSAGGSAGGSAGGS [r10_1169_TrROS]
- folding stability dG unfold [1]: 5.17 ± 0.32 kcal/mol
- folding stability dG unfold [2]: 3.98 ± 0.32 kcal/mol
- folding stability dG unfold [3]: 4.89 ± 0.28 kcal/mol

Sequence: SAGGSAGGSAGGPNLRIKLKPYPDGKWKIDEIEVPDNHVTIPMRFGNGGEERKTMPPEQISAGGSAGGSAGG [r7_829_TrROS]
- folding stability dG unfold [1]: -0.484 ± 0.48 kcal/mol
- folding stability dG unfold [2]: 1.42 ± 0.065 kcal/mol
- folding stability dG unfold [3]: 0.666 ± 0.29 kcal/mol

Sequence: SAGGSAGGSAGGPPDDWILMIEIVTITIEMKYKDGGKEVERKMEILVIEIAIIPPDDLPSAGGSAGGSAGGS [r10_300_TrROS]
- folding stability dG unfold [1]: 3.59 ± 0.29 kcal/mol
- folding stability dG unfold [2]: 2.21 ± 0.2 kcal/mol
- folding stability dG unfold [3]: 3.11 ± 0.37 kcal/mol

Sequence: SAGGSAGGSAGGPPDEVVTTVTEIELPDDKVVTVTTTTVPGAGTTTTTVTTKPLTKPGVSSAGGSAGGSAGG [r11_695_JUSTAS]
- folding stability dG unfold [1]: 1.12 ± 0.029 kcal/mol
- folding stability dG unfold [2]: 2.5 ± 0.086 kcal/mol
- folding stability dG unfold [3]: 1.82 ± 0.047 kcal/mol

Sequence: SAGGSAGGSAGGPPILLPKFDGSVKEVLTLPTEDRLLLVAYNPETGKLFVFEIKDPDEFSAGGSAGGSAGGS [r10_772_TrMRF]
- folding stability dG unfold [1]: 1.65 ± 0.063 kcal/mol
- folding stability dG unfold [2]: 0.694 ± 0.044 kcal/mol
- folding stability dG unfold [3]: 1.34 ± 0.14 kcal/mol

Sequence: SAGGSAGGSAGGPPKPIKVLLYKPEENKLYVLVFPEGVSLEEVKKYVESHPNFKIVSVEGSAGGSAGGSAGG [r7_624_TrMRF]
- folding stability dG unfold [1]: 3 ± 0.051 kcal/mol
- folding stability dG unfold [2]: 2.04 ± 0.087 kcal/mol
- folding stability dG unfold [3]: 2.72 ± 0.11 kcal/mol

Sequence: SAGGSAGGSAGGPPKWVIFIMIEIRPVTVEVYDPKNGEPLMEKPVWVIKIKIFLFKPGDFSAGGSAGGSAGG [r7_573_TrROS]
- folding stability dG unfold [1]: 4.82 ± 0.13 kcal/mol
- folding stability dG unfold [2]: 3.07 ± 0.081 kcal/mol
- folding stability dG unfold [3]: 4.54 ± 0.13 kcal/mol

Sequence: SAGGSAGGSAGGPPPGQKVTMWVIRIEIKIKLERTPDGKLKLKIEIKISIVFITIYAPDSAGGSAGGSAGGS [r10_297_TrROS]
- folding stability dG unfold [1]: 4.87 ± 0.19 kcal/mol
- folding stability dG unfold [2]: 3.45 ± 0.13 kcal/mol
- folding stability dG unfold [3]: 4.6 ± 0.22 kcal/mol

Sequence: SAGGSAGGSAGGPTITSSKIVAEYPGGKVIEVTIEEPLPTPSTVTKTVTLFIPEGSVLLSAGGSAGGSAGGS [r10_1183_JUSTAS]
- folding stability dG unfold [1]: 0.402 ± 0.15 kcal/mol
- folding stability dG unfold [2]: 0.536 ± 0.087 kcal/mol
- folding stability dG unfold [3]: 0.361 ± 0.34 kcal/mol

Sequence: SAGGSAGGSAGGPTIVIKDVKGLTPEQAEALARDLLKELGLEDADVRLERGEDGDLTFTYSAGGSAGGSAGG [r7_810_TrMRF]
- folding stability dG unfold [1]: 0.79 ± 0.14 kcal/mol
- folding stability dG unfold [2]: 1.68 ± 0.034 kcal/mol
- folding stability dG unfold [3]: 1.26 ± 0.11 kcal/mol

Sequence: SAGGSAGGSAGGPTVTVKVKLEDGSTATVTYDLDTGELYIEVNGKTYKFPLGSKVEIEEVSAGGSAGGSAGG [r7_434_TrROS_Hall]
- folding stability dG unfold [1]: 3.56 ± 0.054 kcal/mol
- folding stability dG unfold [2]: 2.39 ± 0.28 kcal/mol
- folding stability dG unfold [3]: 3.31 ± 0.17 kcal/mol

Sequence: SAGGSAGGSAGGPVIEIKVPSKEDALEAARKLLEELFGKKPEDMKITVEYNPEDKTIKIKSAGGSAGGSAGG [r7_387_TrROS_Hall]
- folding stability dG unfold [1]: 1.28 ± 0.054 kcal/mol
- folding stability dG unfold [2]: 0.333 ± 0.063 kcal/mol
- folding stability dG unfold [3]: 0.986 ± 0.087 kcal/mol

Sequence: SAGGSAGGSAGGPVLVKLSVSKPPGDKVIVTLSFYNPETKEVFTITVPLDFLKNIKPLFSAGGSAGGSAGGS [r10_1077_TrMRF]
- folding stability dG unfold [1]: 2.87 ± 0.13 kcal/mol
- folding stability dG unfold [2]: 2.61 ± 0.11 kcal/mol
- folding stability dG unfold [3]: 2.83 ± 0.2 kcal/mol

Sequence: SAGGSAGGSAGGPVVEELEEDLVTEYFRDGDDLYKVVFIPGTGKPFEKKIESIPPDEPFSAGGSAGGSAGGS [r10_240_TrMRF]
- folding stability dG unfold [1]: -0.0602 ± 0.21 kcal/mol
- folding stability dG unfold [2]: 0.119 ± 0.088 kcal/mol
- folding stability dG unfold [3]: 2.34e-05 ± 0.23 kcal/mol

Sequence: SAGGSAGGSAGGPVVIRLKVDMSPEEVEALAKELASLPNVKVEWDEESRVLTVTLSEEDLSAGGSAGGSAGG [r7_219_TrROS_Hall]
- folding stability dG unfold [1]: 2.98 ± 0.056 kcal/mol
- folding stability dG unfold [2]: 2.46 ± 0.09 kcal/mol
- folding stability dG unfold [3]: 2.72 ± 0.099 kcal/mol

Sequence: SAGGSAGGSAGGPYIRVLRSDGKPIVVPVRADDPELFDRVVAELEAAGYPVVKAEVLRLSAGGSAGGSAGGS [r10_231_TrMRF]
- folding stability dG unfold [1]: 0.155 ± 0.12 kcal/mol
- folding stability dG unfold [2]: -0.818 ± 0.78 kcal/mol
- folding stability dG unfold [3]: -0.041 ± 0.093 kcal/mol

Sequence: SAGGSAGGSAGGSAKSPNGDELPPGQPVEEHTIRPPVKPTITIKMYADPDAGKMKFELFSAGGSAGGSAGGS [r4_13_TrROS]
- folding stability dG unfold [1]: 0.446 ± 0.31 kcal/mol
- folding stability dG unfold [2]: 0.225 ± 0.24 kcal/mol
- folding stability dG unfold [3]: 0.533 ± 0.6 kcal/mol

Sequence: SAGGSAGGSAGGSAPNVKLKVEVVTVKVENAKITLPDGRTITLKPGDTVTITKVTLEPASAGGSAGGSAGGS [r4_26_TrROS_Hall]
- folding stability dG unfold [1]: 2.05 ± 0.085 kcal/mol
- folding stability dG unfold [2]: 2.32 ± 0.088 kcal/mol
- folding stability dG unfold [3]: 2.04 ± 0.22 kcal/mol

Sequence: SAGGSAGGSAGGSASMSVTLERLPNGTVVKITTKSVDPSTGSVDYKPSVEKIPPGVALDSAGGSAGGSAGGS [r4_72_JUSTAS]
- folding stability dG unfold [1]: -0.448 ± 0.1 kcal/mol
- folding stability dG unfold [2]: -0.437 ± 0.18 kcal/mol
- folding stability dG unfold [3]: -0.515 ± 0.28 kcal/mol

Sequence: SAGGSAGGSAGGSDPVKVTVTFTATVTVTLPDGGTAPVTLTVTVTAELPPGQSVEDFVASAGGSAGGSAGGS [r4_126_TrMRF]
- folding stability dG unfold [1]: 3.65 ± 0.055 kcal/mol
- folding stability dG unfold [2]: 2.6 ± 0.033 kcal/mol
- folding stability dG unfold [3]: 3.3 ± 0.073 kcal/mol

Sequence: SAGGSAGGSAGGSDRVEVELIFKFPNGFYVVIKWEIDPDEPGKIEMEIAIFDPDGKPIWSAGGSAGGSAGGS [r4_297_TrROS]
- folding stability dG unfold [1]: 4.69 ± 0.12 kcal/mol
- folding stability dG unfold [2]: 3.35 ± 0.2 kcal/mol
- folding stability dG unfold [3]: 4.63 ± 0.19 kcal/mol

Sequence: SAGGSAGGSAGGSEEILDVKVDEKENTLVITTKLPSGGTTTKEIKVENVPPFPESNVKVSAGGSAGGSAGGS [r4_372_JUSTAS]
- folding stability dG unfold [1]: 0.31 ± 0.036 kcal/mol
- folding stability dG unfold [2]: -0.536 ± 0.072 kcal/mol
- folding stability dG unfold [3]: 0.0453 ± 0.14 kcal/mol

Sequence: SAGGSAGGSAGGSEEKLKKMKPKKVATYKVKTVTYKKTKDGTWEPTKVEEVEITVYALPSAGGSAGGSAGGS [r4_288_TrROS_Hall]
- folding stability dG unfold [1]: 4.04 ± 0.072 kcal/mol
- folding stability dG unfold [2]: 2.44 ± 0.07 kcal/mol
- folding stability dG unfold [3]: 3.28 ± 0.3 kcal/mol
